Reference: publication PMC6402988 (Nature structural & molecular biology, 2019)
Where a chain is given by its changes, count along the chain named.

B1: ADI-15946 mutant Y100AA (antibody, V domains shown)
VH: EVQLVESGGGLVKPGGSLRLSCAASGFTFSNAWMSWVRQAPGKGLEWVGRIKSKTDGGTIDYAAPVKGRFTISRDDSKNTVYLQMTSLKTEDTAVYYCTTYTEDMRAFDWLLRGGETFDYWGQGTLVTVSS
VL: DIRLTQSPSSLSASVGDRVTITCRASHYISTYLNWYQQKPGKAPKLLIYAASNLQSGVPSRFSGSGFGTDFSLTISSLQPEDFATYHCQQSYSTPGRYTFGQGTKVEIK
B2: ADI-15946 IgG (antibody, V domains shown)
VH: B1 VH with A107Y
VL: B1 VL
B3: 46M1 (antibody, V domains shown)
VH: B1 VH with R106A, A107Y
VL: B1 VL

Key:
[1] = biological target: SUDV GP ectodomain (Sudan ebolavirus; strain not named for …, UniProt Q66814); test: ELISA
[2] = biological target: rVSV-EBOV GP (wild type) (Zaire ebolavirus (EBOV), UniProt Q05320); test: ELISA

Row | Binder | binding result [1] | binding result [2]
1 | B1 | binds | –
2 | B2 | binds | binds
3 | B3 | binds | –
